This assay deals with T1, FLAG-Dvl2 (full-length human Dishevelled 2) (human, UniProt O14641 1-736).
T1 construct: Dishevelled 2 (Dvl2), human, full length; also called FLAG-tagged Dvl2; full-length Dvl2; source: HEK293T, transfected (pCS2+), in lysate; also purified from transfected HEK293T with FLAG M2 beads and eluted with FLAG peptide; not shown: FLAG, N-terminal, kept
T1 sequence (looked up): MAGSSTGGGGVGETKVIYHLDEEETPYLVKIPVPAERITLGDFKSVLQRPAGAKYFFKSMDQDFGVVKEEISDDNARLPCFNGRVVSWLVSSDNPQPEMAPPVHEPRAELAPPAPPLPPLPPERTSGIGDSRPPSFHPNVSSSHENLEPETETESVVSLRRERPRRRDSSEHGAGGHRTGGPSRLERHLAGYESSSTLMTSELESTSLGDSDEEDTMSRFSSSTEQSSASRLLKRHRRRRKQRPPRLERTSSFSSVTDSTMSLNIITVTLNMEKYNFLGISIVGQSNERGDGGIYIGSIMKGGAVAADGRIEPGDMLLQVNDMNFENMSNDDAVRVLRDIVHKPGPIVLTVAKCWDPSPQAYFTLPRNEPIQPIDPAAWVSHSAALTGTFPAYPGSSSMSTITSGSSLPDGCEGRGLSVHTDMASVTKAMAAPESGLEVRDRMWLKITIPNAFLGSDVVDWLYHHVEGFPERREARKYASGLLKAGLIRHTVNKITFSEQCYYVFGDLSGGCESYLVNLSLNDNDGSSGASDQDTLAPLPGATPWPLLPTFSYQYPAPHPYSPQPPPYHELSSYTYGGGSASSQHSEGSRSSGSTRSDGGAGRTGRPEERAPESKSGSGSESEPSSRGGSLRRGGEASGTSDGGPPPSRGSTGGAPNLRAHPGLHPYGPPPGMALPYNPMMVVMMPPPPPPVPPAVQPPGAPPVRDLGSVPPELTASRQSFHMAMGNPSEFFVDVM
Kind of assay: pull-down; GST pull-down: FLAG-Dvl2 purified from transfected HEK293T incubated with PP5 protein purified from E. coli and Glutathione Sepharose 4B beads; GST as negative control. Conditions: both partners purified.

This is an account of results in publication PMC5807433, “PP5 (PPP5C) is a phosphatase of Dvl2” (Scientific Reports, 2018).

B1: GST-PP5 (wild type) (enzyme, human, UniProt P53041 1-499, looked up)
chain: MAMAEGERTECAEPPRDEPPADGALKRAEELKTQANDYFKAKDYENAIKFYSQAIELNPSNAIYYGNRSLAYLRTECYGYALGDATRAIELDKKYIKGYYRRAASNMALGKFRAALRDYETVVKVKPHDKDAKMKYQECNKIVKQKAFERAIAGDEHKRSVVDSLDIESMTIEDEYSGPKLEDGKVTISFMKELMQWYKDQKKLHRKCAYQILVQVKEVLSKLSTLVETTLKETEKITVCGDTHGQFYDLLNIFELNGLPSETNPYIFNGDFVDRGSFSVEVILTLFGFKLLYPDHFHLLRGNHETDNMNQIYGFEGEVKAKYTAQMYELFSEVFEWLPLAQCINGKVLIMHGGLFSEDGVTLDDIRKIERNRQPPDSGPMCDLLWSDPQPQNGRSISKRGVSCQFGPDVTKAFLEENNLDYIIRSHEVKAEGYEVAHGGRCVTVFSAPNYCDQMGNKASYIHLQGSDLRPQFHQFTAVPHPNVKPMAYANTLLQLGMM
notes: Protein phosphatase 5 (PP5, PPP5C), wild type; Probably full length; also called PP5 protein purified from E. coli; bacterially expressed and purified PP5; source: E. coli BL21 (pPGH vector, IPTG), purified with Glutathione Sepharose 4B beads; not shown: GST, N-terminal, kept
With B1, the binding result is listed as “binds”.
